Assay in all cases: micro-array, phage-presented peptide on printed CK
For one assay, the target named is T1, I-309 (CCL1) (UniProt P22362 23-96, limits assumed).
T1 construct: Bought chemokine
T1 sequence (looked up): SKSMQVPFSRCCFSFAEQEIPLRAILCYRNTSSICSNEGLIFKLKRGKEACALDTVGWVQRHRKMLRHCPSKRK
On the procedure:
(§1) (1) Printing: Chemokine (CK) solution (in water) was serially diluted with Print Reagent (GenTel BioSurfaces USA) to final concentrations of 50 μg and 25 μg/ml. BSA/BSA-Biotin control solutions (in water) were diluted with Print Reagent to 100 μg/ml. Amplified stock of M13 phage control (M13KEgIII Cloning Vector, New England Biolabs, Cat.No.E8101S) was stored in Tris Buffered Saline (TBS; pH7.5, 4° C.) and diluted with Print Reagent to the working titre (10^8 pfu/μl). An automated spotting robot (16 pin print tool, 0.4mm head; BioRobotics, UK) was used to print the CK/BSA control/M13 control, 5 repeats per sample (CK 25 μg/ml and 50 μg/ml; BSA 100 μg/ml; M13 20 μl), on PATH Protein Microarray Slides (GenTel, Prod.No.2-1005/-1025) at […], and 50-70% relative humidity. Printed micro-array slides were stored at Room Temperature (RT) or 4° C. for at least 24 h before use.
(§2) (2) Blocking: Block Buffer (500 μl/partition; PATHblock, GenTel, Prod.No.2-1014) was applied to the slide for 1 hour at room temp (RT). After removal of Block Buffer, the slide was air dried for 25 minutes;
(§3) (11) Analysis: Quantitative analysis of micro-array was performed by the SpotReader program of Niles Scientific (USA) and presented as Relative Fluorescence (RF) as a function of CK concentration. Micro-array readout (Cy3 fluorescence) was quantified to determine the relative binding affinities of a CBP for the CKs and by inference, the specificity of the CBP for binding to a CK.

In the next assay the target is T2, IL-8 (CXCL8) (UniProt P10145 28-99, limits assumed).
T2 construct: also called IL-8(72aa); IL-8(77aa)
T2 sequence (looked up): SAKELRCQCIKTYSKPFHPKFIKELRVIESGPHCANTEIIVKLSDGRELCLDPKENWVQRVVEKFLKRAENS
The procedure: as §1, §2, §3

Another assay has as its target T3, I-TAC (CXCL11) (UniProt O14625 22-94).
T3 construct: Bought chemokine; also called I-TACK
T3 sequence (looked up): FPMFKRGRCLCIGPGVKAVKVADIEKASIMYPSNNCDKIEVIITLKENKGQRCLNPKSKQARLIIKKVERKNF
The procedure:
as §1, §2, §3

In another assay the target is T4, Mig (CXCL9) (UniProt Q07325 23-125).
T4 construct: Bought chemokine
T4 sequence (looked up): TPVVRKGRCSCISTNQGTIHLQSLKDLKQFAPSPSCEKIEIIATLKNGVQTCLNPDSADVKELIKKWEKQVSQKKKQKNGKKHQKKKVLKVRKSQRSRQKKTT
On the procedure:
as §1, §2, §3

The next assay has as its target T5, SDF-1β (CXCL12) (UniProt P48061 22-93).
T5 construct: Beta isoform of CXCL12; also called SDFβ
On the procedure:
as §1, §2, §3

A further assay concerns the target T6, MCP-2 (CCL8) (UniProt P80075 24-99).
T6 construct: Bought chemokine
T6 sequence (looked up): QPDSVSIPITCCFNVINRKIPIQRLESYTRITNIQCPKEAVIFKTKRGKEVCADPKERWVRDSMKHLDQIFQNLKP
The procedure: as §1, §2, §3

The next assay concerns the target T7, MCP-4 (CCL13) (UniProt Q99616 24-98).
T7 construct: Bought chemokine
The procedure:
as §1, §2, §3

The target of a further assay is T8, TECK (CCL25) (UniProt O15444 24-150).
T8 construct: Bought chemokine
T8 sequence (looked up): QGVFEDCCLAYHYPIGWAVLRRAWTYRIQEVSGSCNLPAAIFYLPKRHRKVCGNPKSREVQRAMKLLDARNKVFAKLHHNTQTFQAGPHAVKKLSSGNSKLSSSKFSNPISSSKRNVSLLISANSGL
On the procedure:
as §1, §2, §3

The target of a further assay is T9, Eotaxin 3 (CCL26) (UniProt Q9Y258 24-94).
T9 construct: Bought chemokine
T9 sequence (looked up): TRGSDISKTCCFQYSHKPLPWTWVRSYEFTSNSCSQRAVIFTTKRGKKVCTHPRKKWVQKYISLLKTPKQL
The procedure: as §1, §2, §3

A further assay has as its target T10, BCA-1 (CXCL13) (UniProt O43927 23-109).
T10 construct: Bought chemokine
T10 sequence (looked up): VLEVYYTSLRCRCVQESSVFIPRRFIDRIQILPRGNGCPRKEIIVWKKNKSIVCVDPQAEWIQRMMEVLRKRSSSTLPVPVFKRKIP
On the procedure:
as §1, §2, §3

The target of the next assay is T11, Eotaxin (CCL11) (UniProt P51671 24-97).
T11 construct: Bought chemokine
On the procedure:
as §1, §2, §3

The target of another assay is T12, Exodus-2 (CCL21) (UniProt O00585 24-134).
T12 construct: Bought chemokine
T12 sequence (looked up): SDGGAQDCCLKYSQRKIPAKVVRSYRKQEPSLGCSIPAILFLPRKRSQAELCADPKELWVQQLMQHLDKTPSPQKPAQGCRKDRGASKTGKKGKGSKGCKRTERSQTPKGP
On the procedure: as §1, §2, §3

The next assay deals with T13, Eotaxin 2 (CCL24) (UniProt O00175 27-104, limits assumed).
T13 construct: Bought chemokine
T13 sequence (looked up): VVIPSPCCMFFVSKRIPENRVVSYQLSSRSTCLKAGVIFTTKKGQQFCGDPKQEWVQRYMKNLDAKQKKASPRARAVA
The procedure:
as §1, §2, §3

For the next assay, the target named is T14, Lymphotactin (XCL-1) (UniProt P47992 23-114, limits assumed).
T14 construct: Bought chemokine
T14 sequence (looked up): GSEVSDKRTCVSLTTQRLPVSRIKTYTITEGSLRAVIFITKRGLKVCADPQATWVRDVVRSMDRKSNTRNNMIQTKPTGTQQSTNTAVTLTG
On the procedure: as §1, §2, §3

A further assay deals with T15, RANTES (CCL5) (UniProt P13501 24-91).
T15 construct: Bought chemokine
T15 sequence (looked up): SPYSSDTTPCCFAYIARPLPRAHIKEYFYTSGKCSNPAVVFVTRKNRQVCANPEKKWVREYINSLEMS
On the procedure:
as §1, §2, §3

A further assay deals with T16, SDF-1α (CXCL12) (UniProt P48061-2 22-89).
T16 construct: Alpha isoform of CXCL12; also called SDFα
The procedure: as §1, §2, §3

A further assay concerns the target T17, MCP-1 (CCL2) (UniProt P13500 24-99).
T17 construct: Bought chemokine
The procedure: as §1, §2, §3

The target in a further assay is T18, GRO-β (CXCL2) (UniProt P19875 35-107).
T18 construct: Bought chemokine
T18 sequence (looked up): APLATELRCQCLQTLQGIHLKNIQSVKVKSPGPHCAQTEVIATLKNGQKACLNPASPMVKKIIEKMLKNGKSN
On the procedure: as §1, §2, §3

The target of another assay is T19, IP-10 (CXCL10) (UniProt P02778 22-98).
T19 construct: Bought chemokine
T19 sequence (looked up): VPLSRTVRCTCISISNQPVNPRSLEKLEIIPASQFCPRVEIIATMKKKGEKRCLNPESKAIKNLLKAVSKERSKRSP
The procedure: as §1, §2, §3

T17 sequence (P13500 24-99 limits assumed): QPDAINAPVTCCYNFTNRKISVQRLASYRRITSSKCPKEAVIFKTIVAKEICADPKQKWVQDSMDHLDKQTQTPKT
T11 sequence (P51671 24-97 limits assumed): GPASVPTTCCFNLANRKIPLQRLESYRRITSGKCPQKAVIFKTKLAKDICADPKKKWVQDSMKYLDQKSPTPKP
T16 sequence (P48061 22-89 limits assumed): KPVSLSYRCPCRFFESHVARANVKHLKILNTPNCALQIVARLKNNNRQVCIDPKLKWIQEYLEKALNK
T5 sequence (P48061 22-93 limits assumed): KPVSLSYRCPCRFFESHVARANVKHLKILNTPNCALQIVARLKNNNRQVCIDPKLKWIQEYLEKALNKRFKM
T7 sequence (Q99616 24-98 limits assumed): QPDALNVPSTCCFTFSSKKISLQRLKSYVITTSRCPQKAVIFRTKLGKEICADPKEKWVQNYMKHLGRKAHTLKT

B1: Phage-Presented Peptide 8.77 (Ph-p8.77) (peptide)
peptide: WVFGVHFCK
On to B1, for which the “Relative Fluorescence Units (RFU)” value with I-309 (CCL1), with IL-8 (CXCL8), with I-TAC (CXCL11), with Mig (CXCL9), with MCP-2 (CCL8) and in the assay with MCP-4 (CCL13) was over 15000 RFU in each case. Moreover, the “Relative Fluorescence Units (RFU)” value in the assay with Eotaxin 3 (CCL26) was over 15000 RFU. Further, the binding result with SDF-1β (CXCL12), with TECK (CCL25) and in the assay with BCA-1 (CXCL13) was “binds” throughout.

B2: Phage-Presented Peptide 31 (Ph-p31) (peptide)
peptide: DYDYG
For B2, the “Relative Fluorescence Units (RFU)” value in the assay with I-309 (CCL1), with IL-8 (CXCL8), with I-TAC (CXCL11), with Mig (CXCL9), in the assay with Eotaxin (CCL11) and with MCP-2 (CCL8) was over 15000 RFU in each case. Also, the “Relative Fluorescence Units (RFU)” value with MCP-4 (CCL13), with Eotaxin 2 (CCL24), in the assay with RANTES (CCL5), with Eotaxin 3 (CCL26) and with MCP-1 (CCL2) was over 15000 RFU each time. The binding result with SDF-1β (CXCL12), with Exodus-2 (CCL21), with Lymphotactin (XCL-1), with TECK (CCL25), with BCA-1 (CXCL13) and with SDF-1α (CXCL12) was “binds” throughout.

B3: Phage-Presented Peptide 25 (Ph-p25) (peptide)
peptide: WVFGHGMCK
Take B3: the “Relative Fluorescence Units (RFU)” value in the assay with IL-8 (CXCL8), with Mig (CXCL9), with MCP-2 (CCL8), with MCP-4 (CCL13), with GRO-β (CXCL2) and in the assay with IP-10 (CXCL10) was over 15000 RFU in each case. In addition, the “Relative Fluorescence Units (RFU)” value with MCP-1 (CCL2) is over 15000 RFU. Moreover, the binding result with Eotaxin (CCL11), with Exodus-2 (CCL21), with Lymphotactin (XCL-1), with RANTES (CCL5), with TECK (CCL25) and with Eotaxin 3 (CCL26) was “binds” each time. Also, the binding result with BCA-1 (CXCL13) was “binds”.

B4: Phage-Presented Peptide 8.6 (Ph-p8.6) (peptide)
peptide: WVFGAAACK
On to B4, for which the binding result with I-309 (CCL1), with I-TAC (CXCL11), in the assay with Mig (CXCL9), in the assay with Eotaxin (CCL11), in the assay with SDF-1β (CXCL12) and in the assay with Exodus-2 (CCL21) was “binds” each time. The binding result in the assay with Eotaxin 2 (CCL24), with Lymphotactin (XCL-1), in the assay with TECK (CCL25), in the assay with Eotaxin 3 (CCL26), with IP-10 (CXCL10) and with BCA-1 (CXCL13) was “binds” in each case. In addition, the binding result with SDF-1α (CXCL12) is listed as “binds”. Besides, the “Relative Fluorescence Units (RFU)” value with MCP-2 (CCL8), in the assay with MCP-4 (CCL13) and in the assay with MCP-1 (CCL2) was over 15000 RFU each time.

B5: Phage-Presented Peptide 32 (Ph-p32) (peptide)
peptide: DYDY
With B5, the “Relative Fluorescence Units (RFU)” value with I-309 (CCL1), with IL-8 (CXCL8), with I-TAC (CXCL11), in the assay with Mig (CXCL9), in the assay with Eotaxin (CCL11) and in the assay with MCP-2 (CCL8) was over 10000 RFU in each case. Further, the “Relative Fluorescence Units (RFU)” value with MCP-4 (CCL13), with Eotaxin 2 (CCL24), in the assay with GRO-β (CXCL2), in the assay with RANTES (CCL5) and in the assay with Eotaxin 3 (CCL26) was over 10000 RFU each time. Moreover, the binding result in the assay with SDF-1β (CXCL12), in the assay with Exodus-2 (CCL21), in the assay with Lymphotactin (XCL-1), with TECK (CCL25), with BCA-1 (CXCL13) and in the assay with SDF-1α (CXCL12) was “binds” in each case.

B6: Phage-Presented Peptide 8.7 (Ph-p8.7) (peptide)
peptide: WVFGNAACK
As for B6, the binding result with I-309 (CCL1), with I-TAC (CXCL11), with Mig (CXCL9), with Eotaxin (CCL11), in the assay with SDF-1β (CXCL12) and with Lymphotactin (XCL-1) was “binds” in each case. Moreover, the binding result in the assay with TECK (CCL25), with Eotaxin 3 (CCL26), in the assay with IP-10 (CXCL10) and with BCA-1 (CXCL13) was “binds” each time. The “Relative Fluorescence Units (RFU)” value with MCP-2 (CCL8) and in the assay with MCP-4 (CCL13) was over 15000 RFU throughout.

Source of the values: US20100227824A1 (SYMTHERA CANADA, published 2010).
